Laboratory results reported in US11407840B2, “Antibodies to M(H)DM2/4 and their use in diagnosing and treating cancer” (NomoCan Pharmaceuticals LLC, priority 2017, dated 2022).

Columns and labels:
[1] = system: mouse colon cancer MC-38 cells (subcutaneous tumors); test: MC-38 syngeneic mouse model of colon cancer; type: in vivo, mouse (C57BL/6); settings: for reduction in tumor volume versus control: FIG. 23
Description: Methodology used (Syngeneic Mouse Models of lung, colon and pancreatic cancer): To investigate the anti-tumor effects of HDM2-specific antibodies on lung, colon and pancreatic tumors in vivo, three well-known syngeneic mouse models of lung, colon and pancreatic cancer were used (Sharma et al, 1999, J. Immunol. 163 (9):5020-5028; McIntyre, 2015, Bioassays 37(8):909-920; Li, et al, 2015, Sci. Rep. 5:7856). Subcutaneous tumors were prepared by implanting either mouse Lewis Lung cancer LL/2 cells (2.5×10^5 cells/mouse), mouse colon cancer MC-38 cells (5×10^5 cells/mouse) or mouse pancreatic cancer Panc-2 cells (2×10^6 cells/mouse) in the right flanks of 8-week-old female C57BL/6 mice (n=6-7). The mice were returned to their respective cages after tumor implantation. From day 7 after tumor implantation, the tumor volumes were measured 2 times/week with a digital caliper. In the case of MC-38 and Panc-2 study, treatment started when the tumors reached an average of 70-80 mm^3. In the case of LL/2 study, tumor cell inoculation and treatment were initiated simultaneously. Mice were micro-chipped and registered following tumor implantation. Tumor volume measurements and body weights were recorded and mice were randomized into groups that received: A) mAb NMC-103 at 0.4 mg/kg (3 times a week for 3 weeks), 2 mg/kg (2 times a week for 3 weeks), or 4 mg/kg (2 times a week for 3 weeks); B) NMC-204 at 0.4 mg/kg (3 times a week for 3 weeks); C) isotype control mouse IgG1 (Abeam, Cat. No. ab 18447) or IgG3 (Abeam, Cat. No. ab 18392) at 0.4 mg/kg (3 times a week for 3 weeks) or 4 mg/kg (2 times a week for 3 weeks); D) Gemcitabine (25 mg/kg) and nab-paclitaxel (5 mg/kg) 2 times a week for 3 weeks; or E) a combination of gemcitabine (25 mg/kg), nab-paclitaxel (5 mg/kg) and mAb NMC-103 (2 mg/kg; 2 times a week for 3 weeks) or (10 mg/kg; 2 times a week for 2 weeks). All tumors were injected subcutaneously and all treatments were performed by intraperitoneal injection. Any mouse displaying prolonged adverse clinical signs, or with body weight loss exceeding 15% relative to body weight at day 0, was euthanized. Tumor measurements from post-treatment with HDM2-specific antibodies versus isotype control mouse antibodies versus standard of care treatment (gemcitabine and nab-paclitaxel) were made, and results are presented in FIGS. 16-19.
To further evaluate the NMC-103 dose-dependent anti-tumor effect, in a separate study, the MC-38 syngeneic tumor in mice (n=5) was re-established and treatment carried out similarly to the study of FIG. 17 with the following modification: increase of antibody concentration from 0.4 mg/kg to 10 mg/kg.

[2] = system: Human pancreatic cancer MIAPaCa-2 cells; test: In vitro growth inhibition (cell count); type: cell-based; settings: overnight
Description: Methodology used: Human pancreatic cancer MIAPaCa-2 cells (8,000 cells/well) were pre-incubated with mAb NMC-103, NMC-204 and anti-Cytochrome-C antibody (Santa Cruz, Cat No. sc-13156) at 1, 5 and 10 μg/mL, respectively. Cells in the presence of one of the antibodies at various concentrations were then plated in triplicate in 96-well cell culture plates overnight. The next day, each plate well was analyzed morphologically and a picture was taken from each well using EVOS FL microscope. Cell count was also performed and the number of living cells was graphed as % of control.

[3] = system: normal human peripheral blood mononuclear cells (PBMCs); test: Cell-ELISA, intact normal cells; type: binding; settings: freshly isolated PBMCs; FIG. 6
Description: (§1) Cell-ELISA Methodology: 8,000-10,000 cells/well of a 96-well microplate were grown overnight. The next day, unbound cells were washed off with sterile 1× PBS. The cells in each well were fixed with freshly prepared 4% buffered paraformaldehyde (pH 7.2) for 1 hour followed by 3 washes with 1× PBS. The wells were then blocked with 5% BSA in PBS (100 ? /well) for 2 hours at room temperature. Microplate wells were then washed 5 times with 300 ? of ice cold 1× PBS. MAbs NMC-103, NMC-204 or NMC-303 at 1 μg/mL in 1% BSA/PBS were then incubated with various cancer or normal untransformed cells for 2 hours at room temperature. Wells were then washed with 300 ? of ice-cold 1× PBS for 5 times and corresponding secondary antibody HRP-GaM F(ab′)2 diluted 1:2500 or 1:5000 in PBS with 1% BSA were added at 100 ? /well for 1 hour at room temperature followed by washing 5 times with 300 ? of ice-cold 1× PBS. TMB Substrate Solution (1-StepTM Ultra TMB-ELISA, ThermoFisher, Cat. No. 34028) was then added at 50 ? ? to each microplate well and incubated at room temperature for 30 minutes. The reaction was stopped by addition of 50 μL, of stop solution (ThermoFisher, Cat. No. SSO4) to each well and absorbance of each well was measured at OD450 nm. The absorbance value of each experimental well was corrected for the absorbance value obtained from wells treated with isotype-identical mAbs included in each experiment. The results are thus expressed as “relative binding”.

[4] = system: human breast cancer MCF-7 cells; test: Cell-ELISA, intact cells; type: binding; settings: mAb 1 μg/mL, FIGS. 3-5
Description: as §1

[5] = system: human pancreatic cancer MIA PaCa-2 cells; test: Cell-ELISA, intact cells; type: binding; settings: for binding to intact, EDTA-released MiaPaCa-2 cells, cell-ELISA: EDTA 10 mmols, pH 7.2, 5 min, 37° C., FIG. 10; for binding to intact MIA PaCa-2 cells when competed with NMC-P2 peptide / binding to intact MIA PaCa-2 cells when competed with soluble NMC-P1 peptide: FIG. 8; for relative binding (reactivity) to intact cells, cell-ELISA: MIA PaCa-2, mAb 1 μg/mL, FIGS. 3-5
Description: as §1

[6] = 0.4 mg/kg i.p. 3 times a week for 3 weeks

Molecule	reduction in tumor volume versus control [1, 6]	tumor cells stained positive for Ki67 (immunohistochemistry) ([1]; NMC-103 study, 0.4 mg/kg, FIG. 17B) [%]	average tumor size ([1]; day 12, 10 mg/kg, 2 times per week for 2 weeks, n=5, FIG. 31) [mm^3]	tumor volume ([1]; treated for 18 days, 0.4 mg/kg i.p. 3 times a week for 2.5 weeks, FIG. 17A) [mm^3]	growth inhibitory effect (FIG. 12D; number of living cells graphed as % of control) ([2]; antibody 1 μg/mL) [%]	growth inhibitory effect (FIG. 12D; number of living cells graphed as % of control) ([2]; antibody 5 μg/mL) [%]	growth inhibitory effect (FIG. 12D; number of living cells graphed as % of control) ([2]; antibody 10 μg/mL) [%]	binding to intact normal human PBMCs, cell-ELISA [3]	relative binding (reactivity) to intact cells, cell-ELISA [4]	binding to intact, EDTA-released MiaPaCa-2 cells, cell-ELISA [5]	binding to intact MIA PaCa-2 cells when competed with NMC-P2 peptide [5]	binding to intact MIA PaCa-2 cells when competed with soluble NMC-P1 peptide [5]	binding to intact MIA PaCa-2 cells after pre-incubation with full-length recombinant HDM2 ([5]; FIG. 9)	relative binding (reactivity) to intact cells, cell-ELISA [5]	tumor volume ([1]; 0.4 mg/kg i.p. 3 times a week for 3 weeks, FIG. 18A) [mm^3]	tumor cells stained positively for Ki67 ([1]; NMC-204 study, 0.4 mg/kg, FIG. 18B) [%]
NMC-103: mouse monoclonal antibody, IgG1 isotype, binds NMC-P1 (SEQ ID NO:1); VH SEQ ID NO:36, VL SEQ ID NO:37 (antibody, V domains shown, mAb NMC-103 Heavy Chain Variable Region; mAb NMC-103 Light Chain Variable Region) VH: EVQLQESGGGLVQPGGSLRLSCTTSGFTFTHYYMSWVRQPPGKALEWLGFIRNKAKGYTAEYSASVKGRFTISRDNSQSILYLQMNTLRPEDSATYYCARDIGDNWGQGTLVTVSS VL: DIVMTQAAFSNPVTLGTSASISCRSSKNLLHSNGITYLYWYLQRPGQSPQLLISRVSNLASGVPNRFSGSESGTDFTLRISRVEAEDVGVYFCAQLLELPYTFGGGTKLEIK	significant (p<0.005) reduction in tumor volume	5	210	1268	65	84	91	virtually no binding	reactivity	bound	did not have any effect	completely abolished	reduced	reactivity		
NMC-204: mouse monoclonal antibody, IgG3 isotype, binds NMC-P2 (SEQ ID NO:2); VH SEQ ID NO:38, VL SEQ ID NO:39 (antibody, V domains shown, mAb NMC-204 Heavy Chain Variable Region; mAb NMC-204 Light Chain Variable Region) VH: EVQLQESGSVLVRPGASVKLSCKASGDTLSGSWMHWAMQRPGQGLEWIGEIHLNRGTTNYNEKFKGKATVTVDTSSSTAYVDLSSLTSEDSAVYYCARSPGFAYWGQGTLVTVSA VL: GIVMTQAAPSVPVTPGESVSISCRSSKSLLHSNGNSYLYWFLQRPGQSPQLLIYRMSNLASGVPDRFSGSGSGTAFTLRITRVEAEDVGVYYCMQHLEYPFTFGSGTKLEIK	significant (p<0.005) reduction in tumor volume				65	73	77	did not react	reactivity	bound	competed	not with NMC-P1		reactivity	1670	30
